Assay results from PMC9956592 (2023).

How the values were obtained:
[1] = target: T1, Ubiquitin Specific Peptidase 11 (USP11) (human, UniProt P51784 1-963, biotin (biotinylated USP11 in the yeast display assays)); assay: SPR
[2] = target: T1, Ubiquitin Specific Peptidase 11 (USP11); assay: SPR; remark: listed apart in the source

T1 sequence (P51784 whole entry): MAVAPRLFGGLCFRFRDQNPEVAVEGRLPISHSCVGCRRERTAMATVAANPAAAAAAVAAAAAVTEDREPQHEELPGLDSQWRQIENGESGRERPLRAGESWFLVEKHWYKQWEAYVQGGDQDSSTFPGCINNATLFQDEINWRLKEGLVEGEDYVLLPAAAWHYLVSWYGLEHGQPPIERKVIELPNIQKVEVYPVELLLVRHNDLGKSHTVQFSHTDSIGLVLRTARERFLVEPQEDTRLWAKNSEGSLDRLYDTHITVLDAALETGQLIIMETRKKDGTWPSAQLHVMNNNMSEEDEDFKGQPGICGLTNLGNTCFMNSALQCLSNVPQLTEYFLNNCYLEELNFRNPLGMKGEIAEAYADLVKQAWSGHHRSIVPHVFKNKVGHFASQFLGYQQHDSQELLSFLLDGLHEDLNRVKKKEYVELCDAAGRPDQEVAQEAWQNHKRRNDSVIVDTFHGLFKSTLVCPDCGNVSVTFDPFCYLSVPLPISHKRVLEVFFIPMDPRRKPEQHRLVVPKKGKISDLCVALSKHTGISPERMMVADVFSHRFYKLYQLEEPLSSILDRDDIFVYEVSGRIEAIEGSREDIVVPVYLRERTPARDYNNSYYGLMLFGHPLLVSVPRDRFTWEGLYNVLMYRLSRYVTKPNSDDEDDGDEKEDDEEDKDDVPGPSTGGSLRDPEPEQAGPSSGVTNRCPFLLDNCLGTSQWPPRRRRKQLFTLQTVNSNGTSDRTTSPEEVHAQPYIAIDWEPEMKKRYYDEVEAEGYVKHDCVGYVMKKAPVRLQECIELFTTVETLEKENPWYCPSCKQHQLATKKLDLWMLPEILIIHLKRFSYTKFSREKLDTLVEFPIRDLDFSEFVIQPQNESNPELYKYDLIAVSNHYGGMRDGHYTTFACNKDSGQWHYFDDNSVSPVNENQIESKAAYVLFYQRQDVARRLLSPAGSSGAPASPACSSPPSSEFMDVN

B1: scTGP USP11-C3, purified protein (scFv, V domains shown)
VH: QVQLVQSGAEVKKPGSSVKVSCKASGGTFSSYAISWVRQAPGQGLEWMGGIIPIFGTANYAQKFQGRVTITADESTSTAYMELSSLRSEDTAVYYCAREGGIGLSGWLDPWGQGTLVTVSS
VL: EIVLTQSPGTLSLSPGERATLFCRASQSVSSNLAWYQQKPGQAPRLLIYGASTRATGIPARFSGSGSGTEFTLTISSLQSEDFAVYYCQQYDDWPLTFGGGTKVDIK
- Kd [1]: 160 nM
- koff [2]: 0.0038 s⁻¹

B2: scTGP USP11-B6, purified protein (scFv, V domains shown)
VH: QVQLVQSGAEVKKPGSSVKVSCKASGGTFSSYAISWVRQAPGQGLEWMGGIIPIFGTANYAQKFLGRVTITADESTSTAYMELSSLRSEDTAVYYCAREGGIGLSGWLDPWGQGTLVTVSS
VL: EIVMTQTPGTLCLSPGERATLSCRASQSVSNNNLAWYQQKPGQAPRLLIFGASNRATGIPDRFSGSGSGTDFTLTISSLQSEDFAVYYCQQYDSWPLTFGGGTKLEIK
- Kd [1]: 48 nM
- koff [2]: 0.00089 s⁻¹
